Experimental data as given in US20150225464A1 (Affibody, published 2015).

B1: PEP06923 (designed binder)
chain: GSSLAEAKVLANRELDKYGVSDFYKRLINKAKTVEGVEALKLHILAALP
notes: also called ABD variant; control polypeptide
B2: PEP12379 (designed binder)
chain: GSSLAEAKEAANAELDSYGVSDFYKNLIDKAKTVEGVEALKDAILAALP
notes: R23N against PEP07843 (position counted on the 46-mer without GSS); Control polypeptide, expressed in E. coli; also called ABD variant; R23N variant of PEP07843
B3: PEP12380 (designed binder)
chain: GSSLAEAKEAANAELDSYGVSDFYKKLIDKAKTVEGVEALKDAILAALP
notes: Inventive variant; 46 residues with an N-terminal GSS extension; R23K against PEP07843 (position counted on the 46-mer without GSS); Expressed in E. coli; also called ABD variant; R23K variant of PEP07843
B4: PEP12381 (designed binder)
chain: GSSLAEAKEAANAELDSYGVSDFYKSLIDKAKTVEGVEALKDAILAALP
notes: Control polypeptide; 46 residues with an N-terminal GSS extension; R23S against PEP07843 (position counted on the 46-mer without GSS); Expressed in E. coli; also called ABD variant; R23S variant of PEP07843
B5: PEP07843 (designed binder)
chain: GSSLAEAKEAANAELDSYGVSDFYKRLIDKAKTVEGVEALKDAILAALP
notes: single Arg at position 23 of the 46-mer; GSS extension at the N-terminus; also called ABD variant; control

How the values were obtained:
rat serum albumin [1] = biological target: T1, rat serum albumin (rat, UniProt P02770 25-608); assay: SPR Biacore2000 sensorgrams
T1 construct: Bought; also called RSA
T1 sequence (P02770 25-608 limits assumed): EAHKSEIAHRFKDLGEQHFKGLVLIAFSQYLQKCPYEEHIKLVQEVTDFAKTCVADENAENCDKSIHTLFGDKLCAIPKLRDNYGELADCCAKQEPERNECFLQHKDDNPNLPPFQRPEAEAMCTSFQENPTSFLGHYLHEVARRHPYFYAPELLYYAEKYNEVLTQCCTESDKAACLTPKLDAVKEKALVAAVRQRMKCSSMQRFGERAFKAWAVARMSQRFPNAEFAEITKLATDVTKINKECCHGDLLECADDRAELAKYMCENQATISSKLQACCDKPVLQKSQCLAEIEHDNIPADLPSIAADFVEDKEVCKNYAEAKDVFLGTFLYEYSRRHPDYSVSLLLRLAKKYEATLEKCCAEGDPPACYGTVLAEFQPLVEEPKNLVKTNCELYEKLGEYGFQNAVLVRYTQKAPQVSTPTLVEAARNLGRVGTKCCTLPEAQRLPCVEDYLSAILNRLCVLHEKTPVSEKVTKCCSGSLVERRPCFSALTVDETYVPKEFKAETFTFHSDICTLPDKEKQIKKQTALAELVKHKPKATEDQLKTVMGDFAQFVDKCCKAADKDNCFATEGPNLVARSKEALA
Protocol: (§1) The binding of the ABD variants obtained in Example 1 to human serum albumin (HSA), rat serum albumin (RSA), cynomolgus serum albumin (CSA) and mouse serum albumin (MSA) was analyzed by surface plasmon resonance using a Biacore2000 instrument.

mouse serum albumin [2] = biological target: T2, mouse serum albumin (mouse, UniProt P07724 25-608); assay: SPR Biacore2000 sensorgrams
T2 construct: Bought; also called MSA
Protocol: as §1

human serum albumin [3] = biological target: T3, human serum albumin (human, UniProt P02768 25-609); assay: SPR Biacore2000, HSA immobilized on CM-5, polypeptide as analyte, 1:1 Langmuir fit, relative values
T3 construct: Bought recombinant product; also called HSA; Albucult
T3 sequence (P02768 25-609 limits assumed): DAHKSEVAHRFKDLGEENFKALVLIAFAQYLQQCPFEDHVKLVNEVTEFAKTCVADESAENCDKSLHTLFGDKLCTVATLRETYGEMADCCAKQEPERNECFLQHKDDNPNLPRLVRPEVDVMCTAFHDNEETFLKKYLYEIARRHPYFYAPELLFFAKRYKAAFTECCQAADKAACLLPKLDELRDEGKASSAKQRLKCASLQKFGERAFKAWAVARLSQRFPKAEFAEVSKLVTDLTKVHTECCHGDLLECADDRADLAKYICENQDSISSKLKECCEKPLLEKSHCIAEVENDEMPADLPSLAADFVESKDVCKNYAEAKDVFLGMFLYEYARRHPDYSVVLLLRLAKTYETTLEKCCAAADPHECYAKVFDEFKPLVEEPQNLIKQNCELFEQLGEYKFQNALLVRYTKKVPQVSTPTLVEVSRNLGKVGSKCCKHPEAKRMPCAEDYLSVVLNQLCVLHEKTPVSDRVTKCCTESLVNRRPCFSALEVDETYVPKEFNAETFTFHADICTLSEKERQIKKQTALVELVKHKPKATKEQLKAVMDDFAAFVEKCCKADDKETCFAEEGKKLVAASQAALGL
Protocol: (§2) Biosensor analysis on a Biacore2000 instrument (GE Healthcare) was performed with HSA (Albucult®, Novozymes), CSA (purified in-house from cynomolgus serum), RSA (Sigma-Aldrich, Cat. No. A6272) and MSA (Sigma-Aldrich, Cat. No. A3559) immobilized by amine coupling onto the carboxylated dextran layer of the surfaces of CM-5 chips (research grade; GE Healthcare) according to the manufacturer's recommendations.
(§3) ABD variants were used as analytes and were injected in duplicates over the chip at three analyte concentrations (2.5, 10 and 40 nM). The association phase was 5 min followed by a long dissociation phase (60 min) to account at least partially for the slow off-rate of the ABD variants. […] Therefore, all KD's are given as relative KD values only.
(§4) After subtraction of reference surface and buffer injection, curves were fitted to a 1:1 (Langmuir) binding model using BlAevaluation software with correction for mass transfer and with RUmax set as a local parameter.

human serum albumin [4] = biological target: T3, human serum albumin; assay: SPR Biacore2000, albumin immobilized on CM-5, polypeptide as analyte, relative KD
Protocol: as §2, §3, §4

rat serum albumin [5] = biological target: T1, rat serum albumin; assay: as above
Protocol: as §2, §3, §4

cynomolgus serum albumin = biological target: T4, cynomolgus serum albumin (cynomolgus); assay: as above
T4 construct: Purified from serum; also called CSA
T4 sequence (A2V9Z4 25-608): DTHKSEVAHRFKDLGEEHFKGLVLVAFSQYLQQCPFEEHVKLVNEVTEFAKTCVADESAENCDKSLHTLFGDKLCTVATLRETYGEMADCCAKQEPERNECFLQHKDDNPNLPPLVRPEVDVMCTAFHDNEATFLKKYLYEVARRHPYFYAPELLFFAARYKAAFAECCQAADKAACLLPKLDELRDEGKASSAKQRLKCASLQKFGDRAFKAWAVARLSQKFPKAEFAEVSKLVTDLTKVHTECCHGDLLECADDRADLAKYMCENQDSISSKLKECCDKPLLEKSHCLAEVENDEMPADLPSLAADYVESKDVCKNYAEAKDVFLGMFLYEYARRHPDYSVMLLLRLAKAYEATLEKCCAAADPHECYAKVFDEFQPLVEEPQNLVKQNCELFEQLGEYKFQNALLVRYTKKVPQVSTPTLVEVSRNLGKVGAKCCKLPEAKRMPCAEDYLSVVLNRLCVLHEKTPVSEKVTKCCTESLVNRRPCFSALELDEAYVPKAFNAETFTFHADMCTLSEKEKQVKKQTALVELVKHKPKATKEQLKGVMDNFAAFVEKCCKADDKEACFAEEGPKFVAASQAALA
Protocol: as §2, §3, §4

mouse serum albumin [6] = biological target: T2, mouse serum albumin; assay: as above
Protocol: as §2, §3, §4

Row | Binder | binding result (rat serum albumin [1]) | binding result (mouse serum albumin [2]) | Kd (human serum albumin [3]) [pM] | koff (human serum albumin [3]) [s⁻¹] | kon (human serum albumin [3]) [M⁻¹ s⁻¹] | Kd (human serum albumin [4]) [pM] | Kd (rat serum albumin [5]) [pM] | Kd (cynomolgus serum albumin) [pM] | Kd (mouse serum albumin [6]) [pM]
1 | B1 | binds | binds |  |  |  |  |  |  | 
2 | B2 | binds | binds | 14 | 2.36e-05 | 1.7e+06 |  |  |  | 
3 | B3 |  |  | 7.5 | 2.62e-05 | 3.48e+06 | 7.5 | 9.3 | 11 | 117
4 | B4 | binds | binds | 17 | 3.08e-05 | 1.83e+06 |  |  |  | 
5 | B5 |  |  | 6.7 | 2.99e-05 | 4.49e+06 | 6.7 | 8.2 | 9.8 | 87
